Numbering of substitutions follows the chain as printed. Read-outs that look alike come from different tables or passages of the source.
B1: damaged duplex Fg/4 (dsDNA)
DNA 1: GTCGTTCGGAAGACCCTGACGTTGCCCAACTTAATCGCCTCGCCATAG
DNA 2: CTATGGCGAGGCGATTAAGTTGGGCAACGTCAGGGTCTTCCGAACGAC
modifications: strand 1 T23 = Flu-dUMP; strand 2 T30 = 5-iodo-dUMP
B2: damaged duplex FI3/N (dsDNA)
DNA 1: B1 DNA 1 with G24A
DNA 2: B1 DNA 2 with C25T
modifications: strand 1 T17 = 5-iodo-dUMP, T22 = Flu-dUMP

Columns and labels:
XPA [1] = molecular target: T1, XPA (human, UniProt P23025 1-273); experiment: photocrosslinking
XPA [2] = molecular target: T1, XPA; experiment: photocrosslinking; remark: listed apart in the source

T1 sequence (P23025 whole entry): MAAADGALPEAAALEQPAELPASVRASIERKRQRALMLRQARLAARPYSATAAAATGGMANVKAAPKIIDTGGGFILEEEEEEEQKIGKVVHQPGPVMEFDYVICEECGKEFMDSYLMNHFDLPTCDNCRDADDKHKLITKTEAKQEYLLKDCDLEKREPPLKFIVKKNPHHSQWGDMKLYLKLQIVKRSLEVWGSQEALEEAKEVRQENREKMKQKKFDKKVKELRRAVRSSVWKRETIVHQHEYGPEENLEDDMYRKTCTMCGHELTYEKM

| Binder | binding result (XPA [1]) | binding result (XPA [2]) |
| --- | --- | --- |
| B1 | binds |  |
| B2 |  | binds |
